The data set concerns the molecule itself. As to the kind of experiment: cryo-EM structure.

B1: MceG-GFP (MceG, MSMEG_1366, chromosomally tagged with GFP at its C-terminus) (enzyme, UniProt A0QS64 1-360, looked up)
chain: MGVQIDVTGLSKSFGSSKIWEDVTMSIPAGEVSVLLGPSGTGKSVFLKSLIGLLRPERGSIVIDGTDILQCSAKELYEIRTLFGVLFQDGALFGSMNIYDNTAFPLREHTKKSESEIRKIVMEKLDLVGMPNDGHKFPGEISGGMRKRAGLARALVLDPEIILCDEPDSGLDPVRTAYLSQLLIDINAQIDATVLIVTHNINIARTVPDNMGMLFRKQLVMFGPREVLLTSEEPVVKQFLNGRRIGPIGMSEEKDEATAAAEQALVDAGQHDGGVEEIEGVPPQLQATPGMPERKAVARRKARVREILHTLPPAAQAAILEELDRDQPQLSAPTTQTAATAPVENYDDSPTGVIEVPKQA
notes: MceG, ATPase of the MCE ABC transporters, Mycobacterium smegmatis, locus MSMEG_1366; endogenous protein; printed residue numbers run to 360 (residues 1, 256-280 and 326-360 not modelled); also called GFP-tagged MceG; MceG ATPase; not shown: eGFP, C-terminal, kept
A word on the stoichiometry N: it is the number of molecules, sites or subunits per partner or assembly. As for B1, the “stoichiometry N” value turned out to be 2.

The values are drawn from publication PMC9882608, “Structure of an endogenous mycobacterial MCE lipid transporter” (Research Square, 2023).
